Where two headings read alike, the source gives them in different places.
Tests used:
[1] = target: T1, mutant human CD20 #4 (N166D) (human, UniProt P11836 1-297); experiment: FACS, mutant-hCD20 MG87 cells; 100%=best antibody
T1 construct: Stably expressed on MG87 cells
T1 sequence: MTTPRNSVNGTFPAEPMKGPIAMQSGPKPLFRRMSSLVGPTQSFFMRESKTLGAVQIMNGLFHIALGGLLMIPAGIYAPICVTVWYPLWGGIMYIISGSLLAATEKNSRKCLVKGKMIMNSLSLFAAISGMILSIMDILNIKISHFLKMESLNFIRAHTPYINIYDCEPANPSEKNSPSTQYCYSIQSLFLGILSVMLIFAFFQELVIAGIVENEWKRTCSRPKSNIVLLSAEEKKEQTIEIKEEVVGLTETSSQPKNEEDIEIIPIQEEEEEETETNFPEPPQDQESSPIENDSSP
Experimental: (§1) Briefly, approximately 1×10⁶ cells from each stably transfected cell line expressing a mutant human CD20 were collected and incubated with each anti-human antibody, at 10 μg/ml, on ice for 1 hr, followed by incubation with APC-conjugated goat anti-human IgG (Jackson Immunolabs), at 10 μg/ml, on ice for 45 min. For each antibody, binding to each mutant human CD20 was assessed by flow cytometry.

[2] = target: T2, mutant human CD20 #6 (Y77F, N166D) (human, UniProt P11836 1-297); experiment: FACS, mutant-hCD20 MG87 cells; 100%=best antibody
T2 construct: Stably expressed on MG87 cells
T2 chain: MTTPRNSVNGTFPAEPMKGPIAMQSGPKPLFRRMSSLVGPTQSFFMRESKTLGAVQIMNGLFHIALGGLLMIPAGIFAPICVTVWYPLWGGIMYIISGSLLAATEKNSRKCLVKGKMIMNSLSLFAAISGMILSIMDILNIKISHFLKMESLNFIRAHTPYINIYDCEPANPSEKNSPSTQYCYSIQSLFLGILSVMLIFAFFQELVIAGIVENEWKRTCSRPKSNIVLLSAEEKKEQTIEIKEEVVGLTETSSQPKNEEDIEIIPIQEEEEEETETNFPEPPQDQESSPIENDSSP
Experimental: as §1

[3] = target: T3, mutant human CD20 #5 (P172S) (human, UniProt P11836 1-297); experiment: FACS, mutant-hCD20 MG87 cells; 100%=best antibody
T3 construct: Stably expressed on MG87 cells
T3 sequence: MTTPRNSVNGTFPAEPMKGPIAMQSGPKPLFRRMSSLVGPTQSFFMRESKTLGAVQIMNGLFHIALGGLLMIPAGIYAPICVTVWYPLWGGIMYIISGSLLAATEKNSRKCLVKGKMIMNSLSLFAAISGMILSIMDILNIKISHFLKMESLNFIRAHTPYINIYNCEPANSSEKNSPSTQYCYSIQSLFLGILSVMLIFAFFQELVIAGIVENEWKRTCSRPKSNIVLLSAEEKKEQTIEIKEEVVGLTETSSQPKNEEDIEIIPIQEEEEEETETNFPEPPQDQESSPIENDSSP
Experimental: as §1

[4] = target: T4, mutant human CD20 #9 (N163D, N166D) (human, UniProt P11836 1-297); experiment: FACS, mutant-hCD20 MG87 cells; 100%=best antibody
T4 construct: Stably expressed on MG87 cells
T4 chain: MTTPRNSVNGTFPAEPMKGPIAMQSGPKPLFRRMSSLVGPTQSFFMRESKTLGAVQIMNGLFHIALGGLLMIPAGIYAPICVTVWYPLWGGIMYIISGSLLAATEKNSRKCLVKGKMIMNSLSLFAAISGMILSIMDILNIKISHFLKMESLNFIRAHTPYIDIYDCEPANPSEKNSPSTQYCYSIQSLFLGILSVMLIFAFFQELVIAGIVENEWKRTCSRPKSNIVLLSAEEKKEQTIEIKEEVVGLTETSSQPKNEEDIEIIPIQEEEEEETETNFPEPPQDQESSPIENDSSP
Experimental: as §1

[5] = target: T5, human CD20 (human, UniProt P11836 1-297); experiment: cell-based or functional assay
T5 sequence: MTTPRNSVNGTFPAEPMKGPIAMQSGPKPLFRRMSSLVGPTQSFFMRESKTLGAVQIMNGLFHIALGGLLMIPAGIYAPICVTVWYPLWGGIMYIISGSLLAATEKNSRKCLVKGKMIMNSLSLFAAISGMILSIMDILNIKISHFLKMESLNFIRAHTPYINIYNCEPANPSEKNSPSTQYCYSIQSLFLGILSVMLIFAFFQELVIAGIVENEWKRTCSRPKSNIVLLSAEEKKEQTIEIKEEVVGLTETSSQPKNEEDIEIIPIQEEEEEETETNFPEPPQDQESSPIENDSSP

[6] = target: T5, human CD20; experiment: flow cytometry, hCD20-transfected MG87 cells
Experimental: Briefly, parental MG87 and human CD20-transfected MG87 cells were incubated for 30 min at 4° C. with each of the 15 human antibodies and the two control antibodies, followed by incubation with PE-conjugated anti-human IgG antibody. Binding was assessed by flow cytometry. Fluorescence intensities were compared with binding to the parental cell line and control isotype-matched sample.

[7] = target: T5, human CD20; experiment: cell-based or functional assay; remark: listed apart in the source

B1: 10F2-13 (antibody, V domains shown)
VH: EEQLVESGGDLVQPGRSLRLSCAASGFTFHDYTMHWVRQAPGKGLEWVSGISWNSGSLGYADSVKGRFTISRDNAKKSLYLQMNSLRAEDTALYYCAKDPSYGSGSYHSYYGMDVWGQGTTVTVSS
VL: EIVLTQSPATLSLSPGERATLSCWASQSISRYLVWYQQKCGQAPRLLIYEASKRATGIPVRFSGSGSGTDFTLTISSLESEDFAVYYCQQRFNWPLTFGGGTKVEIK
notes: Fully human IgG, constant region not specified; also called 10F2-13N; ab 10F2-13
[1]
  Percent of Binding to Mutant Human CD20: 60%
[2]
  Percent of Binding to Mutant Human CD20: 1%
[3]
  Percent of Binding to Mutant Human CD20: 69%
[4]
  Percent of Binding to Mutant Human CD20: 4%
[5]
  % Cytotoxicity (CDC, Daudi), 0 hour: 99.6%
  % Cytotoxicity (CDC, Daudi), 1 hour: 99.2%
  % Cytotoxicity (CDC, Daudi), 6 hour: 98.5%
[6]
  Total Mean Fluorescent Intensity: 3400

B2: 8G6-5 (antibody, V domains shown)
VH: EVQLAESGGDLVQSGRSLRLSCAASGITFHDYAMHWVRQPPGKGLEWVSGISWNSDYIGYADSVKGRFTISRDNAKKSLYLQMNSLRPDDTALYYCVKDFHYGSGSNYGMDVWGQGTTVTVSP
VL: EIVMTQSPATLSMSPGERATLSCRASQSVSRNLAWYQQKVGQAPRLLISGASTRATGIPARFSGSGSGTEFTLTINSLQSEDFAVYYCQQSNDWPLTFGQGTRLEIK
notes: Fully human IgG, constant region not specified; also called 8G6-5N
[1]
  Percent of Binding to Mutant Human CD20: 70%
[2]
  Percent of Binding to Mutant Human CD20: 5%
[3]
  Percent of Binding to Mutant Human CD20: 76%
[4]
  Percent of Binding to Mutant Human CD20: 4%
[5]
  % Cytotoxicity (CDC, Daudi), 0 hour: 99.6%
  % Cytotoxicity (CDC, Daudi), 1 hour: 99.2%
  % Cytotoxicity (CDC, Daudi), 6 hour: 97.7%
[6]
  Total Mean Fluorescent Intensity: 3410

B3: 6F6-1 (antibody, V domains shown)
VH: AVQLVESGGGLVQPGRSLRLSCAASGFTFRDYAMHWVRQGPGKGLEWVSGISWNTDYIGYADSVKGRFTISRDNAKNSLYLQMNSLRPEDTALYYCAKDARYGRDNYYGMDVWGQGTTVTVSS
VL: EIVMTQSPATLSVSPGERATLSCRASQSVSHNLAWYQQKPGQAPRLLIYGAYTRATGIPDRFSGTGSGTEFTLTISSLQSEDFAVFYCQQYNNWPLTFGGGTKVEIK
notes: Fully human IgG, constant region not specified; also called 6F6-1N
[1]
  Percent of Binding to Mutant Human CD20: 85%
[2]
  Percent of Binding to Mutant Human CD20: 16%
[3]
  Percent of Binding to Mutant Human CD20: 100%
[4]
  Percent of Binding to Mutant Human CD20: 4%
[7]
  % Cytotoxicity (CDC, Daudi), 0 hour: 97.1%
  % Cytotoxicity (CDC, Daudi), 1 hour: 97.1%
  % Cytotoxicity (CDC, Daudi), 6 hour: 76.4%
[6]
  Total Mean Fluorescent Intensity: 3390

B4: 9E4-20 (antibody, V domains shown)
VH: EVQLVESGGGLVQPGRSLRLSCAASGFTFYDYAMHWVRQAPGKGLEWVSGISWNSDYIGYADSVKGRFTISRDNAKNSLYLQMNSLRAEDTALYYCAKDARYGRNNYYGMDVWGPGTTVTVSS
VL: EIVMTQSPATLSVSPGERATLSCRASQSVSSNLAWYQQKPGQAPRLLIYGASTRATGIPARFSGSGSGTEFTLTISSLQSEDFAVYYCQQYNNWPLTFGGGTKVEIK
notes: Fully human IgG, constant region not specified; also called 9E4-20N
[1]
  Percent of Binding to Mutant Human CD20: 8%
[2]
  Percent of Binding to Mutant Human CD20: 1%
[3]
  Percent of Binding to Mutant Human CD20: 57%
[4]
  Percent of Binding to Mutant Human CD20: 3%
[7]
  % Cytotoxicity (CDC, Daudi), 0 hour: 67.4%
  % Cytotoxicity (CDC, Daudi), 1 hour: 31.2%
  % Cytotoxicity (CDC, Daudi), 6 hour: 49.9%
[6]
  Total Mean Fluorescent Intensity: 2910

B5: 9D4-7 (antibody, V domains shown)
VH: EVQLVESGGGLVQPGRSLRLSCAASGFTFYDYAMHWVRQAPGKGLEWVSGISWNSDTIGYADSVKGRFTISRDNAKNSLYLQMNSLRAEDTALYYCTKDGSYGHFYSGLDVWGQGTTVTVSS
VL: EIVLTQSPATLSLSPGERATLSCRASQSVSSYLAWYQQKPGQAPRLLIYVASNRATGIPARFSGSGSGTDFTLTISSLEPDDFAVYYCQQRYYWPLTFGGGTKVEIK
notes: Fully human IgG, constant region not specified; also called 9D4-7N
[1]
  Percent of Binding to Mutant Human CD20: 5%
[2]
  Percent of Binding to Mutant Human CD20: 0%
[3]
  Percent of Binding to Mutant Human CD20: 66%
[4]
  Percent of Binding to Mutant Human CD20: 4%
[5]
  % Cytotoxicity (CDC, Daudi), 0 hour: 99.4%
  % Cytotoxicity (CDC, Daudi), 1 hour: 99%
  % Cytotoxicity (CDC, Daudi), 6 hour: 96%
[6]
  Total Mean Fluorescent Intensity: 3160

B6: 10E3-17 (antibody, V domains shown)
VH: EVQLVESGGGLVQPGRSLRLSCAASGFTFRDYAMHWVRQVPGKGLEWVSGISWNRGTIGYADSVKGRFTISRDNAKNSLFLQMNSLRADDTALYYCAKDHYYGSGSPYGMDVWGQGTTVTVSS
VL: EIVLTQSPATLALSPGERATLSCRASQSVSKYLAWYQQKPGQAPRLLIYDASKRVTGIPGRLSGSGSGTDFTLTISSLEPEDFALYYCQQSSNWPITFGQGTRVEIK
notes: Fully human IgG, constant region not specified; also called 10E3-17N
[1]
  Percent of Binding to Mutant Human CD20: 1%
[2]
  Percent of Binding to Mutant Human CD20: 1%
[3]
  Percent of Binding to Mutant Human CD20: 49%
[4]
  Percent of Binding to Mutant Human CD20: 4%
[7]
  % Cytotoxicity (CDC, Daudi), 0 hour: 97%
  % Cytotoxicity (CDC, Daudi), 1 hour: 96.2%
  % Cytotoxicity (CDC, Daudi), 6 hour: 79.2%
[6]
  Total Mean Fluorescent Intensity: 3070

B7: 2B7-7 (antibody, V domains shown)
VH: EVQLVESGGGLVQPGRSLRLSCAASGFTFRDYTMHWVRQGPGKGLEWVSGISWNSDYIGYADSVKGRFTISRDNAKNSLYLQMNSLRVEDTALYYCAKLSGTYRDYFYGVDVWGQGTTVTVSS
VL: EIVLTQSPATLSLSPGERAALSCRASQSVSNYLAWYQQKPGQAPRLLIYDASNRATGIPARFSGSGSGTDFTLTISSLEPEDFAVYYCQQRSNWPLTFGGGTKVEIR
notes: Fully human IgG, constant region not specified; also called 2B7-7N
[1]
  Percent of Binding to Mutant Human CD20: 100%
[2]
  Percent of Binding to Mutant Human CD20: 12%
[3]
  Percent of Binding to Mutant Human CD20: 88%
[4]
  Percent of Binding to Mutant Human CD20: 4%
[5]
  % Cytotoxicity (CDC, Daudi), 0 hour: 99.4%
  % Cytotoxicity (CDC, Daudi), 1 hour: 99.4%
  % Cytotoxicity (CDC, Daudi), 6 hour: 98.3%
[6]
  Total Mean Fluorescent Intensity: 3480

B8: 6B9-4 (antibody, V domains shown)
VH: EEQLVESGGDLVQPGRSLRLSCAASGFTFHDYTMHWVRQAPGKGLEWVSGISWNSGSIGYADSVKGRFTISRDNAKNSLYLQMNSLRIEDTALYYCAKDPSYGSGSYYYYYGMDVWGQGTTVTVSS
VL: EIVLTQSPATLSLSPGERATLSCRASQSVSSYLVWYQQRPGQAPRLLIYEASNRATGIPARFSGSGSGTDFTLTISSLESEDFAVYYCQQRSNWPLTFGGGTKVEIK
notes: Fully human IgG, constant region not specified; also called 6B9-4N
[1]
  Percent of Binding to Mutant Human CD20: 3%
[2]
  Percent of Binding to Mutant Human CD20: 1%
[3]
  Percent of Binding to Mutant Human CD20: 67%
[4]
  Percent of Binding to Mutant Human CD20: 3%
[7]
  % Cytotoxicity (CDC, Daudi), 0 hour: 98.1%
  % Cytotoxicity (CDC, Daudi), 1 hour: 98.5%
  % Cytotoxicity (CDC, Daudi), 6 hour: 97.5%
[6]
  Total Mean Fluorescent Intensity: 2930

B9: 9C11-14 (antibody, V domains shown)
VH: QVQLVESGGDSVKPGGSLRLSCAASGFTFSDSYMTWIRQAPGKGLEWVSFISSSGSTIYYADSVKGRFTISRDNVKKSLYLQMNRLRAEDTAVYYCAREEPGNYVYYGMDVWGQGTTVTVSS
VL: EIVVTQSPATLSLSPGERATLSCRTSQTTTSYLAWYRQKPGQAPRLLIYDASNRAAGIPARFSGSGSGTDFTLTINSLEPEDFAVYYCQLRTNWITFGQGTRLEIK
notes: Fully human IgG, constant region not specified; also called 9C11-14N
[1]
  Percent of Binding to Mutant Human CD20: 87%
[2]
  Percent of Binding to Mutant Human CD20: 87%
[3]
  Percent of Binding to Mutant Human CD20: 29%
[4]
  Percent of Binding to Mutant Human CD20: 100%
[5]
  % Cytotoxicity (CDC, Daudi), 0 hour: 55.8%
  % Cytotoxicity (CDC, Daudi), 1 hour: 22.3%
  % Cytotoxicity (CDC, Daudi), 6 hour: 12.9%
[6]
  Total Mean Fluorescent Intensity: 2750
